Data on 29 molecules can be found in patent US20110318356A1 (Novo Nordisk, published 2011).

Numbering of substitutions follows the chain as printed. Names and notes keep the numbering of the source.

The labels stand for the following.
B1: HzTFPI4F36 HC-G42E, G44R, A60P, K64Q (antibody, human IgG4 S228P, kappa, name in Kabat numbering, V domains shown)
VH: EVQLVESGGGLVKPGGSLRLSCAASGFTFSNYAMSWVRQAPEKRLEWVSTISRSGSYSYYPDSVQGRFTISRDNAKNSLYLQMNSLRAEDTAVYYCARLGGYDEGDAMDSWGQGTTVTVSS
VL: DIVMTQTPLSLSVTPGQPASISCKSSQSLLESDGKTYLNWYLQKPGQSPQLLIYLVSILDSGVPDRFSGSGSGTDFTLKISRVEAEDVGVYYCLQATHFPQTFGGGTKVEIKR
notes: Mutated CDR-grafted heavy chain with wild type CDR-grafted light chain; Kabat numbering; also called HzTFPI4F36 G42E, G44R, A60P, K64Q
B2: HzTFPI4F36 HC-G42E, G44R, CDR2 (antibody, human IgG4 S228P, kappa, name in Kabat numbering, V domains shown)
VH: B1 VH with Y60F
VL: B1 VL
notes: Mutated CDR-grafted heavy chain with wild type CDR-grafted light chain; Kabat numbering; also called HzTFPI4F36 G42E, G44R, Y59F, A60P, K64Q
B3: MuTFPI4F36 (TFPI-4F36A1B2) murine monoclonal antibody (antibody, mouse IgG1, kappa, V domains shown)
VH: EVELVESGGGLVKPGGSLKLSCAASGFTFSNYAMSWVRQTPEKRLEWVATISRSGSYSYFPDSVQGRFTISRDNAKNTLYLQMSSLRSEDTAMYYCTRLGGYDEGDAMDSWGQGTSVTVSS
VL: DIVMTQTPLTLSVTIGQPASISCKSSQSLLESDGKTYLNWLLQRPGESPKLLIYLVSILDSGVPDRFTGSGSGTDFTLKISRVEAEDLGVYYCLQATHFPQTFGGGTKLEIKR
notes: murine kappa / IgG1; also called anti-TFPI4F36A1B2; Murine TFPI4F36
B4: HzTFPI4F36-CDRgrafted (initial CDR grafted version of humanized TFPI4F36) (antibody, human IgG4 S228P, kappa)
heavy: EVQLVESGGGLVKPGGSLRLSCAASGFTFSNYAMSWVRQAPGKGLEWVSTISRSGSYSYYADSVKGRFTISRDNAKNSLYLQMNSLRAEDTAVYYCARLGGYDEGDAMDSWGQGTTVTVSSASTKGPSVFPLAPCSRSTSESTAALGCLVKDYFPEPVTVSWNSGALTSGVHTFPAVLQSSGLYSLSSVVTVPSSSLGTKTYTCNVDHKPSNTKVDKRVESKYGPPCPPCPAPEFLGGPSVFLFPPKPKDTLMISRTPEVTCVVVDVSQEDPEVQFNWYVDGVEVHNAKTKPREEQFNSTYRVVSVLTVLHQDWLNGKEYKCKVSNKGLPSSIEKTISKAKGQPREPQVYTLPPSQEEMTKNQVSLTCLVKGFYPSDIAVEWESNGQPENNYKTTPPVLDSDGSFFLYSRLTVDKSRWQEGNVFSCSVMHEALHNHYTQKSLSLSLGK
light: DIVMTQTPLSLSVTPGQPASISCKSSQSLLESDGKTYLNWYLQKPGQSPQLLIYLVSILDSGVPDRFSGSGSGTDFTLKISRVEAEDVGVYYCLQATHFPQTFGGGTKVEIKRTVAAPSVFIFPPSDEQLKSGTASVVCLLNNFYPREAKVQWKVDNALQSGNSQESVTEQDSKDSTYSLSSTLTLSKADYEKHKVYACEVTHQGLSSPVTKSFNRGEC
notes: human kappa/IgG4(S241P); also called hz4F36CDRgraft
B5: HzTFPI4F36 HC-G44R, A60P, K64Q (antibody, human IgG4 S228P, kappa, name in Kabat numbering, V domains shown)
VH: B1 VH with E42G
VL: B1 VL
notes: Mutated CDR-grafted heavy chain with wild type CDR-grafted light chain; Kabat numbering
B6: HzTFPI4F36 HC-FR2, CDR2 (antibody, human IgG4 S228P, kappa, name in Kabat numbering, V domains shown)
VH: B1 VH with A40T, Y60F
VL: B1 VL
notes: as for B5
B7: HzTFPI4F36 HC-FR2, S49A (antibody, human IgG4 S228P, kappa, name in Kabat numbering, V domains shown)
VH: B1 VH with A40T, S49A, P61A, Q65K
VL: B1 VL
notes: as for B5
B8: HzTFPI4F36 HC-A60P (antibody, human IgG4 S228P, kappa, name in Kabat numbering, V domains shown)
VH: B1 VH with E42G, R44G, Q65K
VL: B1 VL
notes: as for B5
B9: HzTFPI4F36 HC-FR3 (antibody, human IgG4 S228P, kappa, name in Kabat numbering, V domains shown)
VH: B1 VH with E42G, R44G, P61A, Q65K, N84S, A88S, V93M
VL: B1 VL
notes: as for B5
B10: HzTFPI4F36 HC-FR2 (antibody, human IgG4 S228P, kappa, name in Kabat numbering, V domains shown)
VH: B1 VH with A40T, P61A, Q65K
VL: B1 VL
notes: Mutated CDR-grafted heavy chain with wild type CDR-grafted light chain; Kabat numbering; also called patch mutant in HC FR2
B11: HzTFPI4F36 HC-S77T (antibody, human IgG4 S228P, kappa, name in Kabat numbering, V domains shown)
VH: B1 VH with E42G, R44G, P61A, Q65K, S78T
VL: B1 VL
notes: as for B5
B12: HzTFPI4F36 HC-FR3, A93T (antibody, human IgG4 S228P, kappa, name in Kabat numbering, V domains shown)
VH: B1 VH with E42G, R44G, P61A, Q65K, N84S, A88S, V93M, A97T
VL: B1 VL
notes: as for B5
B13: HzTFPI4F36 HC-G42E, G44R, S49A CDR2 (antibody, human IgG4 S228P, kappa, name in Kabat numbering, V domains shown)
VH: B1 VH with S49A, Y60F
VL: B1 VL
notes: as for B5
B14: HzTFPI4F36 HC-FR3, S77T (antibody, human IgG4 S228P, kappa, name in Kabat numbering, V domains shown)
VH: B1 VH with E42G, R44G, P61A, Q65K, S78T, N84S, A88S, V93M
VL: B1 VL
notes: as for B5
B15: HzTFPI4F36 HC-Q3E (antibody, human IgG4 S228P, kappa, name in Kabat numbering)
heavy: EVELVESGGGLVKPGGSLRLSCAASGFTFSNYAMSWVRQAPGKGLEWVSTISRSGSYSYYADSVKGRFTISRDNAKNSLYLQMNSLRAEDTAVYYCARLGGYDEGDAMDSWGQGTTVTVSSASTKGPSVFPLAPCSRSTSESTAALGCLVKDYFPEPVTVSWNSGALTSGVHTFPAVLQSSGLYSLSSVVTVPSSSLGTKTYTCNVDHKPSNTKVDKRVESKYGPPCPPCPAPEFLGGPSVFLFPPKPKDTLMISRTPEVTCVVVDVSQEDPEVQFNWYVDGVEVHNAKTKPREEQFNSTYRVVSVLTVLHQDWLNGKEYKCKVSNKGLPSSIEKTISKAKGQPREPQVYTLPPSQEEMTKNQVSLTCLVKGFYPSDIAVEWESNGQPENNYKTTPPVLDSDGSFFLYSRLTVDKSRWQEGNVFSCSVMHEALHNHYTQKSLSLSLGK
light: B4 light
notes: Mutated CDR-grafted heavy chain with wild type CDR-grafted light chain; human kappa/IgG4(S241P)
B16: HzTFPI4F36 HC-K64Q (antibody, human IgG4 S228P, kappa, name in Kabat numbering, V domains shown)
VH: B1 VH with E42G, R44G, P61A
VL: B1 VL
notes: as for B5
B17: HzTFPI4F36 HC-G44R (antibody, human IgG4 S228P, kappa, name in Kabat numbering, V domains shown)
VH: B1 VH with E42G, P61A, Q65K
VL: B1 VL
notes: as for B5
B18: HzTFPI4F36 HC-S49A (antibody, human IgG4 S228P, kappa, name in Kabat numbering, V domains shown)
VH: B1 VH with E42G, R44G, S49A, P61A, Q65K
VL: B1 VL
notes: as for B5
B19: HzTFPI4F36 HC-Y59F, A60P (antibody, human IgG4 S228P, kappa, name in Kabat numbering, V domains shown)
VH: B1 VH with E42G, R44G, Y60F, Q65K
VL: B1 VL
notes: as for B5
B20: HzTFPI4F36 HC-KABAT CDR2 (antibody, human IgG4 S228P, kappa, name in Kabat numbering, V domains shown)
VH: B1 VH with E42G, R44G, Y60F
VL: B1 VL
notes: as for B5
B21: HzTFPI4F36 HC-A93T (antibody, human IgG4 S228P, kappa, name in Kabat numbering, V domains shown)
VH: B1 VH with E42G, R44G, P61A, Q65K, A97T
VL: B1 VL
notes: as for B5
B22: HzTFPI4F36 HC-Y59F (antibody, human IgG4 S228P, kappa, name in Kabat numbering, V domains shown)
VH: B1 VH with E42G, R44G, Y60F, P61A, Q65K
VL: B1 VL
notes: as for B5
B23: mouse/human chimera version of the anti-TFPI4F36 antibody (ChimTFPI4F36) (antibody, IgG4, V domains shown)
VH: B3 VH
VL: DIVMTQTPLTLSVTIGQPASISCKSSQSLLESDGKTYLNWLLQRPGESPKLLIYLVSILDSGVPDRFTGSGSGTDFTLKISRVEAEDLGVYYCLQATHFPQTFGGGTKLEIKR
notes: also called Chimeric TFPI4F36; chimeric anti-TFPI4F36
B24: HzTFPI4F36 LC-K39R, Q42E, Q45K (antibody, human IgG4 S228P, kappa, name in Kabat numbering, V domains shown)
VH: B1 VH with E42G, R44G, P61A, Q65K
VL: B1 VL with K44R, Q47E, Q50K
notes: Mutated CDR-grafted light chain with wild type CDR-grafted heavy chain; Kabat numbering
B25: HzTFPI4F36 LC-Y36L (antibody, human IgG4 S228P, kappa, name in Kabat numbering, V domains shown)
VH: B1 VH with E42G, R44G, P61A, Q65K
VL: B1 VL with Y41L
notes: as for B24
B26: HzTFPI4F36 LC-P15I (antibody, human IgG4 S228P, kappa, name in Kabat numbering)
heavy: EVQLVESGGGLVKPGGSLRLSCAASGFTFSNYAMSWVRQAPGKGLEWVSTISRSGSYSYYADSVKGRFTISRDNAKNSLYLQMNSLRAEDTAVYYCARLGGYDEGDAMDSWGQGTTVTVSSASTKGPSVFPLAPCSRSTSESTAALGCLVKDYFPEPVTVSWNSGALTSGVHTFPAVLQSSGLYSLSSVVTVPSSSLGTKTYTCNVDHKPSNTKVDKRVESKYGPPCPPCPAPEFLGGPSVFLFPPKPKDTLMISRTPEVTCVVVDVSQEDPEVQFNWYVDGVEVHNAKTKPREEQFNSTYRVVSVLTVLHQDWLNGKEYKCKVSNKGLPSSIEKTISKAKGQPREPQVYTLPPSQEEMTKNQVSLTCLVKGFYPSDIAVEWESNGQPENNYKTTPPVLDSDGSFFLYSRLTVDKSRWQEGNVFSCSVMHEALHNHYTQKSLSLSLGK
light: B4 light with P15I
notes: as for B24
B27: HzTFPI4F36 LC-P15I, FR2 (antibody, human IgG4 S228P, kappa, name in Kabat numbering)
heavy: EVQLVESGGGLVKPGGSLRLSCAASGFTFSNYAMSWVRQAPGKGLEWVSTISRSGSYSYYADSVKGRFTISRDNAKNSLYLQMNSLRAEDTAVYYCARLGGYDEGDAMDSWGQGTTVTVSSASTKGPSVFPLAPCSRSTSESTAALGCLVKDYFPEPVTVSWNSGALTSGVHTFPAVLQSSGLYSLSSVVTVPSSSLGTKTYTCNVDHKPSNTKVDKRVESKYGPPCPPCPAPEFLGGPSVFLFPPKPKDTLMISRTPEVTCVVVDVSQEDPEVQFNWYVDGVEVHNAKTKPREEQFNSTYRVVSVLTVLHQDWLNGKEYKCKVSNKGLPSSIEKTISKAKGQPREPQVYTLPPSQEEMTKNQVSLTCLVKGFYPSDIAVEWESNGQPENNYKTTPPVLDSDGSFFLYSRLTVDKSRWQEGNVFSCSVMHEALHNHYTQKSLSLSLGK
light: B4 light with P15I, Y41L, K44R, Q47E, Q50K
notes: as for B24
B28: HzTFPI4F36 LC-FR2 (antibody, human IgG4 S228P, kappa, name in Kabat numbering)
heavy: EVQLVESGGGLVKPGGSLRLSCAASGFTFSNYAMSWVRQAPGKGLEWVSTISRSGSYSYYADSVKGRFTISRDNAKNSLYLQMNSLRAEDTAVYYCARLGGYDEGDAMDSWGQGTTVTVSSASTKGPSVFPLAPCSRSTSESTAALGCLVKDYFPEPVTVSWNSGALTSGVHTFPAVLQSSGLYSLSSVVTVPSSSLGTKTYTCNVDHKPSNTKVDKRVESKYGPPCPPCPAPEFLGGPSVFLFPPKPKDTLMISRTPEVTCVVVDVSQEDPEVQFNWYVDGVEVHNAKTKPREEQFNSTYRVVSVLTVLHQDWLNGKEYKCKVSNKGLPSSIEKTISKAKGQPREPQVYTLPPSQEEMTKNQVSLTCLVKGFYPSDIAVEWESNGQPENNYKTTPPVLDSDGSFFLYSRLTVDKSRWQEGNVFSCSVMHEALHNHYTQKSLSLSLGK
light: B4 light with Y41L, K44R, Q47E, Q50K
notes: Mutated CDR-grafted light chain with wild type CDR-grafted heavy chain; Kabat numbering; also called patch mutant in LC FR2
B29: HzTFPI4F36 LC-S63T (antibody, human IgG4 S228P, kappa, name in Kabat numbering, V domains shown)
VH: B1 VH with E42G, R44G, P61A, Q65K
VL: B1 VL with S68T
notes: Mutated CDR-grafted light chain with wild type CDR-grafted heavy chain; human kappa/IgG4(S241P)

In one assay the target is T1, recombinant full length human tissue factor pathway inhibitor (TFPI) (human, UniProt P10646 29-304).
T1 construct: also called TFPI1; human TFPI
Briefly: SPR (Biacore), TFPI. (SPR reads the build-up and loss of mass on a sensor chip optically.)
For orientation: Kd means the constant that tells how readily two partners part at equilibrium. Turning to B1, the dissociation constant (Kd) was 0.093 nM.

As to B2, the Kd was found to be 0.039 nM.

A further assay deals with T1, recombinant full length human tissue …. The assay can be described thus: SPR (Biacore).
Text: The affinity analyses were done using SRP as described below.
(§1) These were followed by a direct binding kinetic procedure on selected mAb constructs, with the monoclonal antibody covalently coupled via free amine groups to the carboxymethylated dextrane membrane (CM5) on the sensor chip surface.
For the molecule B3, the Kd is around 0.03 nM. In the case of B4, the “fold lower affinity than the original mouse TFPI4F36 antibody” value is at least 100 fold.

The target is the same in another assay. Briefly: SPR (Biacore), recombinant human TFPI.
Turning to B5, the Kd came to 0.03 nM. As for B6, the Kd is above 0.03 nM.

For B7, the Kd was 1.3 nM. Regarding B8, the Kd is 2.2 nM. On to B9, for which the Kd came out at 5.3 nM. In the case of B10, the Kd came to 0.88 nM.

Take B11: the Kd was 1.5 nM. On the same count and under the same terms, to B12 belongs 4.1 nM; to B13, above 0.03 nM.

Consider B1, for which the Kd is 0.093 nM.

Take B14: the Kd was found to be 7.7 nM. For B15, the Kd was 5.8 nM. Still for that read-out and setting: as for B16, the figure is 2.5 nM; as for B17, 2.3 nM.

With B18, the Kd is 3 nM. For the molecule B2, the Kd amounted to 0.039 nM. As for B19, the Kd is 2.3 nM. On the same count and under the same terms, to B20 belongs 0.9 nM. For B21, the Kd was 2.7 nM.

For B22, the Kd is 5.5 nM.

The next assay shares this target. Briefly: SPR (Biacore), recombinant human TFPI over the mAb.
Experimental: Binding interaction analysis was obtained by Surface Plasmon Resonance in a Biacore 3000. Capture of the relevant monoclonal antibody at a fixed concentration was obtained with immobilised mouse anti-IgG. Different concentrations of TFPI were tested.
as §1
A word on the kon: it is the rate constant with which the complex forms. On to B3, for which the Kd stood at 0.0282 nM and the kon was 4.7e+06 M⁻¹ s⁻¹. For the molecule B23, the Kd was determined as 0.0162 nM and the kon amounted to 8.88e+06 M⁻¹ s⁻¹. For B4, in that order: 2.06 nM and 1.07e+06 M⁻¹ s⁻¹.

For the next assay the target is unchanged. The assay can be described thus: SPR (Biacore), recombinant human TFPI. The source holds these as a separate data set.
In the case of B24, the Kd was above 0.03 nM. Take B25: the Kd is above 0.03 nM. Turning to B26, the Kd was 17 nM. On to B27, for which the Kd amounted to 0.64 nM. On the same count and under the same terms, to B28 belongs 0.63 nM; to B29, 7.8 nM.
